Source: IntAct's records for PubMed 15350218

B1: Synaptotagmin-2 (Rattus norvegicus (Rat)), P29101 (parent)
chain: MRNIFKRNQEPIVAPATTTATMPLAPAAPADNSTESTGTGESQEDMFAKLKDKFFNEINKIPLPPWALIAMAVVAGLLLLTCCFCICKKCCCKKKKNKKEKGKGMKNAMNMKDMKGGQDDDDAETGLTEGEGEGEEEKEPENLGKLQFSLDYDFQANQLTVGVLQAAELPALDMGGTSDPYVKVFLLPDKKKKYETKVHRKTLNPAFNETFTFKVPYQELGGKTLVMAIYDFDRFSKHDIIGEVKVPMNTVDLGQPIEEWRDLQGGEKEEPEKLGDICTSLRYVPTAGKLTVCILEAKNLKKMDVGGLSDPYVKIHLMQNGKRLKKKKTTVKKKTLNPYFNESFSFEIPFEQIQKVQVVVTVLDYDKLGKNEAIGKIFVGSNATGTELRHWSDMLANPRRPIAQWHSLKPEEEVDALLGKNK

Variants of: B1
Settings: with wnk1_rat Wnk1, Q9JIH7
Chain of wnk1_rat Wnk1, Q9JIH7 (Q9JIH7 whole entry): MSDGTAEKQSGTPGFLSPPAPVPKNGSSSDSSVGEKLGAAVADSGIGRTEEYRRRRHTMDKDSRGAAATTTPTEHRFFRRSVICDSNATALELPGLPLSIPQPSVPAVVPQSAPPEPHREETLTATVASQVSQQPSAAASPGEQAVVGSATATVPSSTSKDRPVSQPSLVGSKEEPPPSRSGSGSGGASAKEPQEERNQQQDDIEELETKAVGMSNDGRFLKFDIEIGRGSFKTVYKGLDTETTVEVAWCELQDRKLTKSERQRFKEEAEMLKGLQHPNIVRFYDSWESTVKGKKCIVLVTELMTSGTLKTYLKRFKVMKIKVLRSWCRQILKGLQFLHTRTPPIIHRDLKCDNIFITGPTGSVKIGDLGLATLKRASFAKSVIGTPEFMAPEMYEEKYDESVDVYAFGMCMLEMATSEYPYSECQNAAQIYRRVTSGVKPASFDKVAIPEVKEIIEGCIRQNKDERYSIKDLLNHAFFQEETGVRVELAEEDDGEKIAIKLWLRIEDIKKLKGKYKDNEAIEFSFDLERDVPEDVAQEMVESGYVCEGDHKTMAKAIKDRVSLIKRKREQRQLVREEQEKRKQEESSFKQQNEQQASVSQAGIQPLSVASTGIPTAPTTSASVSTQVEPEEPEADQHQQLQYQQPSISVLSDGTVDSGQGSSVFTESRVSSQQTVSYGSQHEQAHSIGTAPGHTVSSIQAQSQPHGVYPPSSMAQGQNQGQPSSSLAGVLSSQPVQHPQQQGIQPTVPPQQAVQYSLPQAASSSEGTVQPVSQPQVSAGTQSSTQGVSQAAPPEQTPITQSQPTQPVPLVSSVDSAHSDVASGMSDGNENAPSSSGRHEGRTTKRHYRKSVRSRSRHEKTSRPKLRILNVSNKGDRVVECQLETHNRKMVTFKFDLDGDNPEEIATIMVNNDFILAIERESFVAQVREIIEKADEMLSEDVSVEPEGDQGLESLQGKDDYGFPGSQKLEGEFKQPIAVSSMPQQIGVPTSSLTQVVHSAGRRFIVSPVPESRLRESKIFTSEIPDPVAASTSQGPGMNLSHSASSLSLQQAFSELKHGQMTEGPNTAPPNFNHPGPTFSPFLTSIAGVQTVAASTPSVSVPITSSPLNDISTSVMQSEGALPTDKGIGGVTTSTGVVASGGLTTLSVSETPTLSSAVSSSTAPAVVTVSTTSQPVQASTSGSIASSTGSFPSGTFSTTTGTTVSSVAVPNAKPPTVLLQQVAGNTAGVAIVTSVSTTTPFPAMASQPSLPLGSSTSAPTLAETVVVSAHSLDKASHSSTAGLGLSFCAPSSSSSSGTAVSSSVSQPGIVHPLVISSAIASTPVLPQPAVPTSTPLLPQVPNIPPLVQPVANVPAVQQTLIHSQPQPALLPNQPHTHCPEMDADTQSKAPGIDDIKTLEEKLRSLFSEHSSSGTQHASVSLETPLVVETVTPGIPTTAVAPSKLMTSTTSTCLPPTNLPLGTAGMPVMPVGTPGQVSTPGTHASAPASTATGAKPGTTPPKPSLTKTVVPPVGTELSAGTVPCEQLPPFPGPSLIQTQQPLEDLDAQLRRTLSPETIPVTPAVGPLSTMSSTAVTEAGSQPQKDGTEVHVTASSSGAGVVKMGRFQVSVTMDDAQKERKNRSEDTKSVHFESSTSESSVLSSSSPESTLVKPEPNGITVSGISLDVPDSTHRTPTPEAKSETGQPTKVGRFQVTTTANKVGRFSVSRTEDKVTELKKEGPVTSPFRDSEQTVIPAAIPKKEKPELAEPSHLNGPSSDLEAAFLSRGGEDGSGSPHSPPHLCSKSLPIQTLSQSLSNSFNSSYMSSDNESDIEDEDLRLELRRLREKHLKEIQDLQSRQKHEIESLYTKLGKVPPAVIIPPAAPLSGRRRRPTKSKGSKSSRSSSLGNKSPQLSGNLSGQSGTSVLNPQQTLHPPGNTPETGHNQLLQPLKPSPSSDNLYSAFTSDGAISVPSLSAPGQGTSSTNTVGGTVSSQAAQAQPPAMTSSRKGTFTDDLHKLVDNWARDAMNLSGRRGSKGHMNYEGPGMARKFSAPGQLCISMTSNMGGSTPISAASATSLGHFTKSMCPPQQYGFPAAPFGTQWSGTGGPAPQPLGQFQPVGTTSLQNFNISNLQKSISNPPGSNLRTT

Variant	effect of a mutation on the interaction
MRNIFKRNQEPIVAPATTTATMPLAPAAPADNSTESTGTGESQEDMFAKLKDKFFNEINKIPLPPWALIAMAVVAGLLLLTCCFCICKKCCCKKKKNKKEKGKGMKNAMNMKDMKGGQDDDDAETGLTEGEGEGEEEKEPENLGKLQFSLDYDFQANQLTVGVLQAAELPALDMGGTSDPYVKVFLLPDKKKKYETKVHRKTLNPAFNETFTFKVPYQELGGKTLVMAIYDFDRFSKHDIIGEVKVPMNTVDLGQPIEEWRDLQGGEKEEPEKLGDICTSLRYVPTAGKLTVCILEAKNLKKMDVGGLSNPYVKIHLMQNGKRLKKKKTTVKKKTLNPYFNESFSFEIPFEQIQKVQVVVTVLDYDKLGKNEAIGKIFVGSNATGTELRHWSDMLANPRRPIAQWHSLKPEEEVDALLGKNK [D310N]	decreasing interaction

Variants of: B1
Settings: with wnk1_rat Wnk1, Q9JIH7
Remark: another data set of the same source

Variant	effect of a mutation on the interaction
MRNIFKRNQEPIVAPATTTATMPLAPAAPADNSTESTGTGESQEDMFAKLKDKFFNEINKIPLPPWALIAMAVVAGLLLLTCCFCICKKCCCKKKKNKKEKGKGMKNAMNMKDMKGGQDDDDAETGLTEGEGEGEEEKEPENLGKLQFSLDYDFQANQLTVGVLQAAELPALDMGGTSDPYVKVFLLPDKKKKYETKVHRKTLNPAFNETFTFKVPYQELGGKTLVMAIYSFDRFSKHDIIGEVKVPMNTVDLGQPIEEWRDLQGGEKEEPEKLGDICTSLRYVPTAGKLTVCILEAKNLKKMDVGGLSDPYVKIHLMQNGKRLKKKKTTVKKKTLNPYFNESFSFEIPFEQIQKVQVVVTVLDYDKLGKNEAIGKIFVGSNATGTELRHWSDMLANPRRPIAQWHSLKPEEEVDALLGKNK [D231S]	decreasing interaction
